± gives the uncertainty stated by the source.
Test: amyloid nucleation score (Sup35N fusion, yeast selection) (log enrichment); library NNK2; higher = more nucleation; inactive = no reads after selection
Summary of the method: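 The nucleation score is the log enrichment of output over input reads, calculated with DiMSum and centred on the mode score of non-aggregating sequences. Sequences with under 100 input reads were excluded. Reads came from Illumina sequencing of plasmid inserts from psi-negative yeast expressing Sup35N fused to peptides of 20 random codons, induced 24 hours with 100 μM copper sulfate and grown 7 days at 30°C without adenine and uracil.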

Row | Substance | amyloid nucleation score
1 | DLRSWVFWNTSAYYIFSTDS | -1.32 ± 0.36
2 | SVSYSGDNH | -0.177 ± 1
3 | KFAKSSNKDHHDFYAVELGT | -0.289 ± 0.63
4 | VFLACNDCLCVWLSVEVTSE | inactive
5 | HAGMIYILYVNLRRTSKRMG | 3.86 ± 0.072
6 | LAFFGVLSSFYSRFGIKTKM | -1.83 ± 0.54
7 | CLAISWEGWSNSFGRYVVGW | 1.86 ± 0.1
8 | YKWIIESRMGALPKQLCRRA | -0.465 ± 0.42
9 | INSLTKAVYYSSHYYPVSLS | inactive
10 | WTWGALDRRSGLFEVGGMYF | 0.449 ± 0.47
11 | SRHKFRSITFIEIHPMI | 0.012 ± 0.43
12 | LFRRGKILACIYA | 0.016 ± 1.1
13 | CLVVLISVVPMVGSLFSRCG | inactive
14 | WAPFMGVSKSTQTARTGMVM | -0.146 ± 0.61
15 | FPHLFKSKNPSRNMNSTSPG | inactive
16 | FYIYGNSCSPYIML | -0.681 ± 1
17 | MNIYEVSKYENGY | 3 ± 0.071
18 | YNQVYES | 2.84 ± 0.054
19 | FYLRNSVMCTGPDLGNSTYM | -1.15 ± 1.1
20 | MQKRRDSKYEYLVFGCDVCM | -1.13 ± 1.1
21 | DCWNCIISGSSALCAHVQSV | inactive
22 | TLELLIMD | 0.385 ± 0.33

Row | Substance | amyloid nucleation score
23 | SVAASGFHVV | -1.57 ± 0.76
24 | TWFAHQMWCFSILQFITLKS | 0.867 ± 0.32
25 | RWITSAY | 0.709 ± 0.62
26 | LTRKKKMQFF | inactive
27 | PSRPCGLRELAYADSAKQLW | 1.15 ± 0.34
28 | CYCEEMSMNTFKTCINTGAM | 1.04 ± 0.42
29 | RNSSL | 0.495 ± 0.48
30 | LFFFSGRWKVNGGIVDGCGV | 0.166 ± 0.45
31 | WFMSKAYVTSCALFSRVIHT | 0.914 ± 0.43
32 | YMKTN | -0.38 ± 0.32
33 | SPWGPLLAFTSKTNPIQWMT | -0.196 ± 0.46
34 | SSTKIFHLL | inactive
35 | DSHADAISVAVKVGRWRYND | 1.53 ± 0.23
36 | VSLWVIKASRVNPFYSPGGK | 0.301 ± 0.64
37 | RRRHLGFGKSVEVE | -0.549 ± 0.34
38 | GENKDYWGHGYVSLACNRQG | 0.492 ± 0.38
39 | WYYRLLWYVLSQGRMRGNVQ | -0.011 ± 0.41
40 | LVRLFS | -0.701 ± 0.63
41 | CRSFAVTDLRVYVKF | 2.12 ± 0.12
42 | TWSIYAHH | 0.952 ± 0.58
43 | WWVKTVLFKK | -0.947 ± 0.78
44 | EVELALGGSELGGVVSWLM | 1.77 ± 0.27

Row | Substance | amyloid nucleation score
45 | PTGCLMICNSFVIDSVRRRP | 7.812 ± 0.032
46 | RRGQEGYRVEWA | 1.22 ± 0.59
47 | FMEGTRHCGKYFSC | 0.938 ± 0.26
48 | LENWSNMGENCSTVDRPNLF | -0.4 ± 1.1
49 | EFAELSSRQRFWHMFV | 1.04 ± 0.34
50 | LCGNRGFYDH | -0.177 ± 0.54
51 | RLSYWFIKELGNTSDYDRAP | -0.541 ± 0.76
52 | LTPLSNIGCTCDYLMDCSYL | inactive
53 | GCLTNTSSGMHWS | -0.208 ± 0.24
54 | MPGQFHFVMNFRINRNYIRS | 5.92 ± 0.067
55 | SRFYILRL | 2.25 ± 0.098
56 | IIYYMTVCQDSIDRIVPFCN | 2.01 ± 0.14
57 | TCCRLILYGILINNLRAWSH | 4.01 ± 0.073
58 | HGDNFSEVATTFNCMMLLNV | -0.243 ± 1.1
59 | LYFASVNQTNSFLRIL | 2.93 ± 0.073
60 | SGWQFQSWRVQRMWLVELSC | 0.494 ± 0.49
61 | KNDGEVMKSVFKDRHCCART | -0.565 ± 0.48
62 | CSCDGWVCPCSACIC | 8.708 ± 0.035
63 | DMCLW | -0.625 ± 0.33
64 | STFFKLD | -1.88 ± 1.1
65 | VGSNKGAIIGLMVGGMVVIA | 2.33 ± 0.21
66 | NAWDVTKSYQHVHSCSIMLV | inactive

Row | Substance | amyloid nucleation score
67 | IGKGRFNVYCMN | -0.64 ± 0.79
68 | QFPTCVHKPSCWDF | 0.291 ± 0.5
69 | QHLFFIYSCYTKLGGTLAGE | 0.746 ± 0.2
70 | PQTLCINISFDYRYMNQVLD | 7.449 ± 0.074
71 | KSMKEFSKFVLMSAP | 0.192 ± 0.46
72 | IHDALTRCEWGSVSPRSSGC | 0.682 ± 0.28
73 | VLVLDR | 3.46 ± 0.073
74 | NSFFGLTVSKEEYLCFFYMF | inactive
75 | VSWCFFDHYHSTILKHGTVS | inactive
76 | SNSLQFYDLKSCDWGVWRCE | 4.768 ± 0.038
77 | CCRNLRDRLNW | inactive
78 | RFEHGSTFGDDKL | -1.26 ± 1.1
79 | MFWRITGAI | 0.402 ± 0.34
80 | MSYAYKVRSCCVMFMMFRSW | -0.336 ± 0.54
81 | SVIITIGLSIKSALRFRRFQ | 4.57 ± 0.058
82 | PIGHLFQET | 0.92 ± 0.24
83 | MLARFSSHVPGTDVNPIGRQ | 0.317 ± 0.5
84 | GNRLWFGTIVRHLIYEVYVR | 0.665 ± 0.36
85 | ICGCKRSTVLWVSCFGV | 3.18 ± 0.12
86 | GYCETNFGGCVPDWMEMLQR | 6.67 ± 0.061
87 | RQSNPR | 1.53 ± 0.31
